The values below come from IntAct's records for PubMed 24855949.

One assay deals with cdn2a_human CDKN2A (UniProt P42771).
Assay [1] concerns the target T1, iaspp_human PPP1R13L (UniProt Q8WUF5).
T1 sequence: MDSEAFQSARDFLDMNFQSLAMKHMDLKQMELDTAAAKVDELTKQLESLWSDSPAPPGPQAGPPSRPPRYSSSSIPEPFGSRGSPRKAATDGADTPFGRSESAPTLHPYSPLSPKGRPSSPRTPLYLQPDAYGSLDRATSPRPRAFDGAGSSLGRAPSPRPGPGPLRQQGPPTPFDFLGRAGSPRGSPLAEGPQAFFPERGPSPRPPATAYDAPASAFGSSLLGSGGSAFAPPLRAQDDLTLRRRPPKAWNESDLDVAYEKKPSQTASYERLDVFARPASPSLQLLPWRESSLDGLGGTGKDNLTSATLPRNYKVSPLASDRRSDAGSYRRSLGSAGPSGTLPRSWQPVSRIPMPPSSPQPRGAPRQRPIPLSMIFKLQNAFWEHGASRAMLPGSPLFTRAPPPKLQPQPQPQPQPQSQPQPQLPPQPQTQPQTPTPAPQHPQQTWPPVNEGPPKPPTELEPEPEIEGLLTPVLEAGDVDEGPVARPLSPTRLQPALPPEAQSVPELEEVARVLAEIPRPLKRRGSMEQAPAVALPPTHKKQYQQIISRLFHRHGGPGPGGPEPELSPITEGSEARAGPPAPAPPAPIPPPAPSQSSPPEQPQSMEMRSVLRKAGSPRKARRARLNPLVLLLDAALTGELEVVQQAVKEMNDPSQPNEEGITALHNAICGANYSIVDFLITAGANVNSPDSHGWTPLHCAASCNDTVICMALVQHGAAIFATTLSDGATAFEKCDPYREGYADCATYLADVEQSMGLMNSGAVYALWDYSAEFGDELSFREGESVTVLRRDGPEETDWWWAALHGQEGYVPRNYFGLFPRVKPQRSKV

The target in assay [2] is T1, iaspp_human PPP1R13L. The source holds these as a separate data set.
The next assay has as its target ikba_chick NFKBIA (UniProt Q91974).

Sequence of ikba_chick NFKBIA (Q91974 whole entry): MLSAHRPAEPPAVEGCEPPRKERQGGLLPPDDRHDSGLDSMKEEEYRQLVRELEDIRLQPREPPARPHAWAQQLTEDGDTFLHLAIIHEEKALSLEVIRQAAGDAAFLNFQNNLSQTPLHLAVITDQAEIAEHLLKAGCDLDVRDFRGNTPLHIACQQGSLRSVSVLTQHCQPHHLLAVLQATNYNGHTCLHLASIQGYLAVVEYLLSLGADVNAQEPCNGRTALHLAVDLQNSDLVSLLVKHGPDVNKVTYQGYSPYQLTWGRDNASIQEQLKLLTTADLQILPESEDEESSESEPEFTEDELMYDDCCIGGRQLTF

As to “GTP-binding nuclear protein Ran (Homo sapiens) (from UniProt P62826) Q69L”, the “effect of a mutation on the interaction” value in the assay with cdn2a_human CDKN2A and with iaspp_human PPP1R13L [1] was “disrupting interaction strength” in each case. “GTP-binding nuclear protein Ran (Homo sapiens) (from UniProt P62826) V187R;V188R”: the “effect of a mutation on the interaction” value in the assay with iaspp_human PPP1R13L [2] and with ikba_chick NFKBIA was “decreasing interaction strength” throughout. Turning to “GTP-binding nuclear protein Ran (Homo sapiens) (from UniProt P62826) V188R”, the “effect of a mutation on the interaction” value with ikba_chick NFKBIA is reported as “decreasing interaction strength”.
